Reference: patent publication US20210008175A1, “BACTERIOPHAGE LYSIN AND ANTIBIOTIC COMBINATIONS AGAINST GRAM POSITIVE BACTERIA” (priority 2012, published 2021)

How the values were obtained:
Enterococcus faecium = test: MIC, broth microdilution (CLSI M07-A9); type: cell-based; details: 5 tested
Streptococcus pneumoniae = test: MIC, broth microdilution (CLSI M07-A9); type: cell-based; details: 26 tested
[1] = system: MRSA Staphylococcus aureus strain (MW2); test: microbe, parasite or virus in culture; type: cell-based
MRSA strain 269 (MW2) = test: Combination MIC study in the presence of 15% surfactant (Survanta); type: cell-based, Staphylococcus aureus; details: PlySs2 plus daptomycin
Bacillus cereus = test: MIC, broth microdilution (CLSI M07-A9); type: cell-based; details: 10 tested
Escherichia coli = test: MIC, broth microdilution (CLSI M07-A9); type: cell-based
S. aureus cocci = test: Electron microscopy of bacteriolysis; type: cell-based; details: after only 15 seconds of treatment
Lactococcus spp. = test: MIC, sensitivity of human gut bacteria; type: cell-based; details: N 3
Proteus mirabilis = test: MIC, sensitivity of human gut bacteria; type: cell-based; details: N 2
Lactobacillus spp. = test: MIC, sensitivity of human gut bacteria; type: cell-based; details: N 6
Streptococcus mutans = test: MIC, broth microdilution (CLSI M07-A9); type: cell-based; details: 12 tested
[2] = system: Streptococcus pyogenes, Group A; test: MIC, broth microdilution (CLSI M07-A9); type: cell-based; details: 54 tested
[3] = system: Staphylococcus aureus (MRSA and MSSA strains); test: Time kill assay, single agents at 1×MIC (CLSI); type: cell-based
[4] = system: Staphylococcus aureus (MRSA and MSSA strains); test: Synergy time-kill assay (6 hours, combination compared to most active single agent); type: cell-based; details: ½ MIC PlySs2 or ¼ MIC vancomycin alone, up to 6 hours
Klebsiella spp. = test: MIC, sensitivity of human gut bacteria; type: cell-based; details: N 8
[5] = system: Staphylococcus lugdiensis; test: MIC, broth microdilution (CLSI M07-A9); type: cell-based; details: 10 tested
Enterococcus faecalis = test: MIC, broth microdilution (CLSI M07-A9); type: cell-based; details: 17 tested
[6] = system: MRSA strain ATCC 700699 and MSSA strain ATCC 25923; test: microbe, parasite or virus in culture; type: cell-based, Staphylococcus aureus
S. aureus = test: Murine bacteremia model, survival; type: in vivo, BALB/c mice; details: for 24 hour survival rate / 72 hour survival rate: high challenge (10^9 CFU MRSA MW2), dosing at 2 hours
[7] = system: Staphylococcus epidermidis; test: MIC, broth microdilution (CLSI M07-A9); type: cell-based; details: 11 tested
MRSA S. aureus strains = test: Dual agent MIC assay (PlySs2 and daptomycin together, broth microdilution); type: cell-based; details: for MIC combo: PlySs2 and daptomycin combined; for MIC alone: single-agent
Listeria monocytogenes = test: MIC, broth microdilution (CLSI M07-A9); type: cell-based; details: 12 tested
MRSA = test: Murine bacteremia model, MRSA CFUs in the blood; type: in vivo, mice; details: 5.25 mg/kg PlySs2 at 2-hours post-infection
Acinetobacter baumannii = test: MIC, broth microdilution (CLSI M07-A9); type: cell-based; details: 8 tested
Pseudomonas aeruginosa = test: MIC, broth microdilution (CLSI M07-A9); type: cell-based
[8] = daptomycin 50 mg/kg once daily, PlySs2 5.25 mg/kg (FIG. 27B)
[9] = vancomycin 110 mg/kg twice daily, PlySs2 5.25 mg/kg (FIG. 27E)

B1: PlySs2: bacteriophage lysin derived from Streptococcus suis, amino acid sequence of FIG. 29 (SEQ ID NO: 1), N-terminal CHAP and C-terminal SH3 domain (protein, listed as Streptococcus suis)
chain: MTTVNEALNNVRAQVGSGVSVGNGECYALASWYERMISPDATVGLGAGVGWVSGAIGDTISAKNIGSSYNWQANGWTVSTSGPFKAGQIVTLGATPGNPYGHVVIVEAVDGDRLTILEQNYGGKRYPVRNYYSAASYRQQVVHYITPPGTVAQSAPNLAGSRSYRETGTMTVTVDALNVRRAPNTSGEIVAVYKRGESFDYDTVIIDVNGYVWVSYIGGSGKRNYVATGATKDGKRFGNAWGTFK
Enterococcus faecium
  MIC 50%: >512 µg/mL
  MIC 90%: >512 µg/mL
Streptococcus pneumoniae
  MIC 50%: 16 µg/mL
  MIC 90%: 64 µg/mL
  MIC Range: 1 to 64 µg/mL
[1]; sub-MIC PlySs2 (4 ug/ml)
  suppression of daptomycin resistance relative to daptomycin alone: 8 to 16 fold
[1]; sub-MIC PlySs2 (8 ug/ml)
  suppression of vancomycin resistance relative to vancomycin alone: 4 to 8 fold
MRSA strain 269 (MW2)
  effective concentration in combination as fraction of MIC: ⅛
  most dilute concentration in combination that still inhibits growth: 2 µg/mL
Bacillus cereus
  MIC 50%: >512 µg/mL
  MIC 90%: >512 µg/mL
  MIC Range: >512 µg/mL
Escherichia coli; 6 tested
  MIC 50%: >512 µg/mL
  MIC 90%: >512 µg/mL
  MIC Range: >512 µg/mL
Escherichia coli; human gut bacteria, N 10
  CF-301 MIC: >512 µg/mL
S. aureus cocci
  bacteriolysis by electron microscopy: extensive bacteriolysis
Lactococcus spp.
  CF-301 MIC: >512 µg/mL
Proteus mirabilis
  CF-301 MIC: >512 µg/mL
Lactobacillus spp.
  CF-301 MIC: >512 µg/mL
Streptococcus mutans
  MIC 50%: 64 µg/mL
  MIC 90%: 256 µg/mL
  MIC Range: 2 to 256 µg/mL
[2]
  MIC 50%: 2 µg/mL
  MIC 90%: 8 µg/mL
  MIC Range: 0.5 to 8 µg/mL
[3]; 1×MIC, 20 MSSA and 42 MRSA strains
  time to reach bactericidal levels (≥3-log10 reduction in CFUs): ≤ 30 minutes
[3]; all MRSA and MSSA strains tested, generally within the first hour of incubation
  maximal kill (log reduction): ≥ 3 log
[4]
  effectiveness alone at sub-MIC doses: ineffective or poorly effective
Klebsiella spp.
  CF-301 MIC: >512 µg/mL
[5]
  MIC 50%: 8 µg/mL
  MIC 90%: 8 µg/mL
  MIC Range: 8 µg/mL
Enterococcus faecalis
  MIC 50%: >512 µg/mL
  MIC 90%: >512 µg/mL
[6]; over 21 days of in vitro growth
  MIC in daptomycin resistant clones: 2 to 4 µg/mL
[6]; start of serial passage
  MIC before daptomycin resistance selection: 8 µg/mL
S. aureus; 5 mg/kg dose
  protection: significant protection
S. aureus; dose-response, as little as
  dose giving survival enhancement over mock-injected control: 0.25 mg/kg
S. aureus; [8]
  24 hour survival rate: 56%
  72 hour survival rate: 18%
S. aureus; [9]
  24 hour survival rate: 60%
  72 hour survival rate: 3%
S. aureus; low challenge model (up to 7×10^6 CFU MRSA MW2), single dose at 4 hours, PlySs2 1.25 mg/kg, daptomycin 2 mg/kg
  survival at 72 hours: 13%
[7]
  MIC 50%: 128 µg/mL
  MIC 90%: 512 µg/mL
  MIC Range: 4 to 512 µg/mL
MRSA S. aureus strains; MRSA strain 223
  Fold reduction: 4
  MIC combo: 0.5 µg/mL
  MIC alone: 2 µg/mL
MRSA S. aureus strains; MRSA strain 241
  Fold reduction: 2
  MIC combo: 2 µg/mL
  MIC alone: 4 µg/mL
MRSA S. aureus strains; MRSA strain 263
  Fold reduction: 4
  MIC combo: 2 µg/mL
  MIC alone: 8 µg/mL
MRSA S. aureus strains; MRSA strain 269 (MW2)
  Fold reduction: 4
  MIC combo: 2 µg/mL
  MIC alone: 8 µg/mL
MRSA S. aureus strains; MRSA strain 270
  Fold reduction: 4
  MIC combo: 2 µg/mL
  MIC alone: 8 µg/mL
MRSA S. aureus strains; MRSA strain 553
  Fold reduction: 2
  MIC combo: 1 µg/mL
  MIC alone: 2 µg/mL
MRSA S. aureus strains; MRSA strain 650
  Fold reduction: 2
  MIC combo: 4 µg/mL
  MIC alone: 8 µg/mL
MRSA S. aureus strains; MRSA strain 827
  Fold reduction: 2
  MIC combo: 4 µg/mL
  MIC alone: 8 µg/mL
MRSA S. aureus strains; MRSA strain 828
  Fold reduction: 4
  MIC combo: 2 µg/mL
  MIC alone: 8 µg/mL
MRSA S. aureus strains; MRSA strain 829
  Fold reduction: 2
  MIC combo: 4 µg/mL
  MIC alone: 8 µg/mL
MRSA S. aureus strains; MRSA strain 830
  Fold reduction: 2
  MIC combo: 2 µg/mL
  MIC alone: 4 µg/mL
MRSA S. aureus strains; MRSA strain 833
  Fold reduction: 4
  MIC combo: 2 µg/mL
  MIC alone: 8 µg/mL
MRSA S. aureus strains; PlySs2 and daptomycin together, a dozen MRSA strains
  fold reduction in the effective MIC: 2-4 fold
Listeria monocytogenes
  MIC 50%: 128 µg/mL
  MIC 90%: 512 µg/mL
  MIC Range: 1 to 512 µg/mL
MRSA; in 15 minutes
  decrease in CFUs in blood: 0.5 log10
MRSA; within 60 minutes of treatment
  decrease in CFUs in blood: 2 log
Acinetobacter baumannii
  MIC 50%: >512 µg/mL
  MIC 90%: >512 µg/mL
  MIC Range: >512 µg/mL
Pseudomonas aeruginosa; 5 tested
  MIC 50%: >512 µg/mL
  MIC 90%: >512 µg/mL
  MIC Range: >512 µg/mL
Pseudomonas aeruginosa; human gut bacteria, N 11
  CF-301 MIC: >512 µg/mL
